Literature values as cited in paper PMC8083718.

Molecular target: ACE2 (Homo sapiens) (UniProt Q9BYF1)
Sequence (Q9BYF1 18-740): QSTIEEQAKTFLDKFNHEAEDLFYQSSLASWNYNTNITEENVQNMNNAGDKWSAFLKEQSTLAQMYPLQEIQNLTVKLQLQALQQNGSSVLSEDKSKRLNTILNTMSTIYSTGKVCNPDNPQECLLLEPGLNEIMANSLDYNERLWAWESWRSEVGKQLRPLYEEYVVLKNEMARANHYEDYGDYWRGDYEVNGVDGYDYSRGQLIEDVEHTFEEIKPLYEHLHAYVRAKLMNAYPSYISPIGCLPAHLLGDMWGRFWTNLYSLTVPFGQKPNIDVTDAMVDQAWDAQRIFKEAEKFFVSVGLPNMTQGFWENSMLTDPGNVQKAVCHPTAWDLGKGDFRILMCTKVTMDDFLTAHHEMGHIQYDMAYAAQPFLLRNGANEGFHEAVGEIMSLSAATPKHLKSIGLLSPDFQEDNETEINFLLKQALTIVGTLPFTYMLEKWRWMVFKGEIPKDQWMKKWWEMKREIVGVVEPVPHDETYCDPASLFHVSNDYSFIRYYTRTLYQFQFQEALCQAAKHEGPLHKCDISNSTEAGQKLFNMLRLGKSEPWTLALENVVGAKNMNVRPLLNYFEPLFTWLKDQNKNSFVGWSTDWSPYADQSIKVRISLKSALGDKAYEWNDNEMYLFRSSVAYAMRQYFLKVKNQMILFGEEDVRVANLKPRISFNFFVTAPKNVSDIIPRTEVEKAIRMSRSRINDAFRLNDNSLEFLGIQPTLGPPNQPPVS

## spike protein (from UniProt P59594)
  Kd: 0.12 nM
